target: human Claudin18.2 (human); assay: cell-based or functional assay

Row | Binder | CDC % Relative activity [%] | CDC EC50 [µg/mL]
1 | 252E7C9 (antibody, V domains shown) VH: QTYLQQSGAELVRSGASVKMSCRTSGYSFTSHNMHWVKQTPGQGLEWIGYIYPGNGGSYYNQKFKGKAILTADTSSSTAYMQISSLTSEDSAVYFCTRDYYGNSFVYWGQGTLVTVSA VL: DVVMTQSPSSLTEKTGEKVSMSCKSSQSLLNSGNQKNYLTWYQQKPGQPPKLLIYWASTRESGVPDRFTGSGSGTDFTLTISSLQTEDLAIYYCQNNFRYPFTFGAGTKLELK | 154 | 1.19
2 | 252C10F6 (antibody, V domains shown) VH: QVHLKQSGRGLVQPSQSLSITCTVSGFSLPNYGVHWVRQPPGKGLEWLGVIWSGGNTDYNTVFKARLSITKDNSKSQVFFKMNSLQADDTAIYYCARNLYGNYDYAMDYWGQGTSVTVSS VL: DIVMTQSPATLSVTPGDRVSLSCRASQSISDYLHWYQQKSHESPRLLIKYASQSISGIPSRFSGSGSGSEFTLSINSVEPEDVGVYYCQNGHSFPFTFGSGTKLEIK | 3.42 | 53.6
3 | 181C7B2 (antibody, V domains shown) VH: QVQLKQSGPGLVQPSQSLSITCTVSGFSLTYYGVHWVRQSPGKGLEWLGVIWRGGNTDYNAAFISRLSINKDNSKSQVFFKMNSLQPNDTAIYYCARAAYYGNCFDYWGQGTTLTVSS VL: DIVMTQSPSSLTVTAGEKVTMSCKSSQSLLNSGNQKNYLTWYQQKPGQPPKLLIYWASTRESGVPDRFTGSGSGTDFTLTISSVQAEDLAVYYCQNNYIYPLTFGAGTKLELK | 44 | 3.59
4 | 254A8D5 (antibody, V domains shown) VH: EVMLVESGGGLVKPGGSLKLSCAASGFTFSSYTVSWVRQTPEKRLEWVATSIVGSTYTYFPDSVKGRFTISRDFAKNTLFLQMSSLRSEDTAMYYCSRLGRGNAMDYWGQGTSVSVSS VL: DIVMTQSPSSLTVTAGEKVTLNCRSSQSLLNSGNQKNYLTWYQQKPGQPPKLLIYWASTRESGVPDRFTGSGSGTDFTLTISSVQADDLAVYYCQNGYSYPFTFGSGTKLEIK | 154 | 1.19
5 | 250F4G4 (antibody, V domains shown) VH: QAYLQQSGAELVRSGASVKMSCKASGYTFTSHNMHWVKQTPGQGLEWIGYIYPGNGRTNYNQKFKGKATLTADTSSSTAYMQISSLTSEDSAVYFCTRDYYGNSFAYWGQGTLVTVSA VL: DIVMTQSPSSLTEKVGERVSMSCKSSQSLFNSGNQKNYLTWYQQKPGQPPKLLIYWASTRESGVPDRFTGSGSGTDFTLTISSVQAEDLAVYYCQNDYWYPFTFGAGTKLELK | 126 | 1.45
6 | 253E4F7 (antibody, V domains shown) VH: EIQLQQSGPELMKPGASVKMSCKASGYSFTSYYIHWVKQSHGKSLEWIGYIDPFNGGTRYNQKFEGKATLTVDKSSTTAYMHLSSLTSEDSTVYYCASLRFLAYWGQGTLVTVSA VL: DIVMTQSPSSLTVTAGEKVTMTCKSSQSLLNSGNQKNYLTWYQQKPGQPPKVLISRASTRQSGVPDRFTGSGSGTDFTLTISSVQAEDLAVYYCQNDYSYPLTFGAGTKLELK | 174 | 1.06
7 | 257F1E11 (antibody, V domains shown) VH: QAYLQQSGAELVRSGASVKMSCKASGYTFTSHNIHWVKQTPRQGLEWIGYIYPGNGGTNYNQKFKGKATLTADTSSSTAYMQISSLTSEDSAVYFCTRDYYGNSFAYWGQGTLVTVSA VL: DIVMTQSPSSLTEKAGERVSMSCKSSQSLFNSGNQKNYLTWYQQKPGQPPKLLIYWASTRESGVPDRFTGSGSGTDFTLTISSVQAEDLAIYYCQNDYWYPFTFGAGTKLELK | 174 | 0.855
8 | 252F1B10 (antibody, V domains shown) VH: QAYLQQSGAELVRSGASVKMSCKASGYTFTSHNMHWVKQTPGQGLEWIGYIYPGNGGTNYNQKFKGKATLTADTSSSTAYMQINSLTSEDSAVYFCTRDYYGNSFAYWGQGTLVTVSA VL: DIVMTQSPSSLTEKAGERVSMSCKSSQSLFNSGNQKNYLTWYQQKPGQPPKLLIYWASTRESGVPDRFTGSGSGTDFTLTISSVQAEDLAVYYCQNDYRYPFTFGAGTKLELK | 104 | 1.76
9 | 186G12H3 (antibody, V domains shown) VH: EVMLVESGGGLVKPGGSLKLSCAASRFTLSSYAMSWVRQTPEKRLEWVATISSGGSYTYYFDSVKGRFTISRDTAKNTLNLQMSSLRSEDTAMYYCARLYYGNALDYWGQGTSVTVSS VL: DIVMTQSPSSLTVTAGEKVTVSCKSSQSLLNSGNQKNYLTWYQQKPGQPPKLLIYWASTRESGVPDRFTGSGSGTDFTLTISSVQAEDLAVYYCQNNYIYPLTFGAGTTLELK | 114 | 1.39
10 | 257B1G9 (antibody, V domains shown) VH: QAYLQQSGAELVRSGASVKMSCKASGYTFTSHNMHWVKQTPGQGLEWIGYIYPGNGGTNYNQKFKGKATLTADTSSSTAYMQISSLTSEDSAVYFCTRDYYGNSFAYWGQGTLVTVSA VL: DIVMTQSPSSLTERAGERVSMSCKSSQSLFNSGNQKNYLTWYQQKPGQPPKLLIYWASTRESGVPDRFTGSGSGTDFTLTISSVQAEDLAVYYCQNDYRYPFTFGAGTKLELK | 487 | 0.305
11 | 248G8E8 (antibody, V domains shown) VH: QVQLKESGPGLVAPSQSLSITCTVSGFSLTTYGVSWVRQPPGKGLEWLGVIWGDGSTNYHSTLISRLRISKDKSKSQVFLKLNSLQTDDTATYYCAKAGRGNALDYWGQGTSVTVSS VL: DIVLTQSPSSLTVTAGEKVTMSCKSSQSLLNSGNQKNYLTWYQQKPGQPPKLLIYWASTRESGVPDRFTGSGSGTDFTLTISSVQAEDLAVYYCQNDYSFPLTFGAGTKLELK | 114 | 1.61
12 | 194A2F7 (antibody, V domains shown) VH: QIQLVQSGPELKKPGETVKISCKASGYTFTDYLIHWVKQAPGKGLKWMGWINTETGEPTYADDFKGRFALSLETSASTACLQINNLKNEDTATYFCARIYYGNSFDYWGQGTTLTVSS VL: DIVMTQSPSSLPVTAGEKVTMTCKSSQNLLNSGNQKSYLTWYQQKPGQPPKLLIYWASTRETGVPDRFTGSGSGTDFTLTISSVQAEDLAVYYCQNAYRFPFTFGAGTRLELK | 51.7 | 3.06
13 | 256C3D3 (antibody, V domains shown) VH: QAYLQQSGAELVRSGASVKMSCKASGYAFTSHNMHWVKQTPGQGLEWIGYISPGNGYTNYNQKFRGKATLTADTSSSTAYMQIGSLTSEDSAVYFCTRDYYGNSFAYWGQGTLVTVSA VL: DIVMTQSPSSLTEKAGERVSMSCKSSQSLFNSGNQKNYLTWYQQKPGQPPKLLIYWASTRESGVPDRFTGSGSGTDFTLTISSVQAEDLAVYYCQNNYWFPFTFGAGTKLELK | 165 | 1.11
14 | 250F4G1 (antibody, V domains shown) VH: QAYLQQSGAELVRSGASVKMSCKASGYTFTSHNMHWVKQTPGQGLEWIGYIYPGNGRTNYNQKFKGKATLTADTSSSTAYMQISSLTSEDSAVYFCTRDYYGNSFAYWGQGTLVTVSA VL: DIVMTQSPSSLTEKVGERVSMSCKSSQSLFNSGNQKNYLTWYQQKPGQPPKLLIYWASTRESGVPDRFTGSGSGTDFTLTISSVQAEDLAVYYCQNDYWYPFTFGAGTKLELK | 112 | 1.64
